Ends that are not written are not given here.
Columns and labels:
Assay in all cases: biotinylated peptide overlaid on formalin-fixed amyloid-containing tissue sections; list of amyloids that p31 'specifically binds significantly'
AA amyloid (human) = biological target: T1, AA amyloid (human) (human, UniProt P0DJI8 19-94, limits assumed)
T1 construct: also called serum amyloid protein A amyloidosis
T1 sequence (looked up): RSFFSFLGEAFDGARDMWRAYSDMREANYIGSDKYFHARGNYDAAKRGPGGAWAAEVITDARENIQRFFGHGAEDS
Protocol: (§1) The peptides were overlaid onto formalin-fixed 6 μm-thick amyloid-containing tissue sections, incubated overnight and then the distribution visualized using standard immunohistochemical techniques.

AA amyloid (canine) = biological target: T2, AA amyloid (canine) (canine, UniProt P19708 19-111)
T2 sequence (looked up): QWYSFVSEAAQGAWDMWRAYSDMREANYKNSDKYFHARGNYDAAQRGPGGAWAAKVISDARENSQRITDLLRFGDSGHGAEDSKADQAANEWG
Protocol: as §1

[1] = biological target: Aβ amyloid (Alzheimer's disease) (human, UniProt P05067 672-713)
Protocol: as §1

[2] = biological target: T3, ALECT2 amyloid (Lect2 amyloidosis) (human, UniProt O14960 19-151, limits assumed)
T3 construct: also called ALEC2
T3 sequence (looked up): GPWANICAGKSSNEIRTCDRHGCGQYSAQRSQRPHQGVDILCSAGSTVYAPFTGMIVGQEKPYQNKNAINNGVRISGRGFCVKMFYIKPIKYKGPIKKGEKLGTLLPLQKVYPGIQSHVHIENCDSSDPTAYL
Protocol: as §1

[3] = biological target: ATTR amyloid (transthyretin amyloidosis) (human, UniProt P02766 21-147)
Protocol: as §1

Measured: binding result

B1: peptide p31 (peptide)
peptide: CGGYSKAQKAQAKQAKQAQKAQKAQAKQAKQ
modifications: also: label differs by assay: biotinyl-maleimide on Cys1 (tissue overlays), 125I on Tyr or 99mTc (imaging)
notes: Synthetic peptide with an N-terminal CGGY leader
binds: all assays above

Source: patent US20130022546A1 (UNIVERSITY OF TENNESSEE RESEARCH FOUNDATION, published 2013)
